The target in the assay is T1, MtRipACAT (catalytic domain of M. tuberculosis RipA, residues 261-472) (Mycobacterium tuberculosis, UniProt O53168 261-472).
T1 construct: also called MtRipA catalytic domain; NlpC/P60 catalytic domain; not shown: 6xHis-SUMO, N-terminal, cleaved
T1 sequence: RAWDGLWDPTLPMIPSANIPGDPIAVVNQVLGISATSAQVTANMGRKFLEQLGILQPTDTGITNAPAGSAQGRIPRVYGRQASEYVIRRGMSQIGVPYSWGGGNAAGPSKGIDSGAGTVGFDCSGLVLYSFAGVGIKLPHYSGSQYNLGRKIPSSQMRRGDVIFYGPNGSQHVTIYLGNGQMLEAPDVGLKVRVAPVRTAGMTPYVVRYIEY
The assay can be described thus: BLI; biotinylated MtRipACC immobilised on streptavidin biosensors; 25°C; 25 mM HEPES pH 7.5, 150 mM NaCl, 5% glycerol, BSA 1 mg/mL, 0.05% Tween 20; steady-state signal versus concentration, one-site binding model; apparent Kd. To be noted: both partners purified. In general terms: BLI is a label-free optical method that tracks binding on a fibre tip over time.

B1: MtRipACC (coiled-coil domain of M. tuberculosis RipA, residues 40-240) (domain or fragment)
chain: DPQTDTIAALIADVAKANQRLQDLSDEVQAEQESVNKAMVDVETARDNAAAAEDDLEVSQRAVKDANAAIAAAQHRFDTFAAATYMNGPSVSYLSASSPDEIIATVTAAKTLSASSQAVMANLQRARTERVNTESAARLAKQKADKAAADAKASQDAAVAALTETRRKFDEQREEVQRLAAERDAAQARLQAARLVAWSSE
modifications: biotinylated with EZ-Link NHS-PEG4-Biotin (20 molar excess) for the BLI assays
notes: also called RipA coiled-coil (CC) domain; MtRipA CC domain; not shown: 6xHis-SUMO, N-terminal, cleaved
Regarding B1, the Kd came to 6.8 ± 1.4 µM.

(Values after publication doi:10.1101/2025.06.28.662095, “Mechanistic insights into the allosteric regulation of cell wall hydrolase RipA in Mycobacterium tuberculosis” (bioRxiv, 2025).)
